Blank lines part the entries; values can stand above or below the binder they belong to.
Experiments:
huNav1.7α+β1 [1] = biological target: T1, huNav1.7α+β1 (human, UniProt Q15858 1-1988; Q07699 19-218); assay: binding FACS, HEK293 cells
T1 construct: also called huNav1.7-beta1; HEKa/β1
Protocol: (§1) Binding of the ISVDs to cell-expressed Nav1.7α was detected via murine anti-Flag (Sigma, catalog #F1804). Briefly, cells were resuspended in FACS buffer (PBS, 10% FBS, NaN₃) and transferred to a 96-well V-bottom plate at 1×10^5 cells/well. Purified FLAG3-tagged ISVD was diluted in FACS buffer and added to the cells for 30 minutes at 4° C. […] Prior to the read-out, the samples were resuspended in 1 μg/mL propidium iodide (Sigma, catalog #P4170) to exclude dead cells. Between each step, the cells were centrifuged for 5 minutes at 200 grams and washed with 100 μL/well FACS buffer.
(§2) Crude periplasmic extracts containing ISVDs from phage display selections (as described above) were screened in FACS for binding to huNav1.7α but not to huNav1.5a. […] As used in Table 8, the drawings, and throughout the description, Navβ1, Navβ2, and Navβ3 are human homologs unless specifically identified otherwise.

huNav1.3α = biological target: T2, huNav1.3α (human, UniProt Q9NY46 1-2000); assay: binding FACS on stable cell lines
T2 construct: also called huNav1.3 (alpha subunit)

huNav1.4α = biological target: T3, huNav1.4α (human, UniProt P35499 1-1836); assay: binding FACS on stable cell lines
T3 construct: also called huNav1.4 (alpha subunit)

huNav1.6α = biological target: T4, huNav1.6α (human, UniProt Q9UQD0 1-1980); assay: binding FACS on stable cell lines
T4 construct: also called huNav1.6 (alpha subunit)

huNav1.8α = biological target: T5, huNav1.8α (human, UniProt Q9Y5Y9 1-1956); assay: binding FACS on stable cell lines
T5 construct: also called huNav1.8 (alpha subunit)

huNav1.1α = huNav1.1α (human, UniProt P35498 1-2009); assay: binding FACS on stable cell lines
huNav1.2α = biological target: T6, huNav1.2α (human, UniProt Q99250 1-2005); assay: binding FACS on stable cell lines
T6 construct: also called huNav1.2 (alpha subunit)

huNav1.7α+β1-β2-β3 [2] = biological target: T7, huNav1.7α+β1-β2-β3 (human, UniProt Q15858 1-1988; Q07699 19-218; O60939 30-215; Q9NY72 23-215); assay: binding FACS, CHO FlpIn cells
T7 construct: 5N11S variant; also called huNav1.7-beta1-beta2-beta3; huNav1.7α+Navβ1-Navβ2-Navβ3
Protocol: as §1, §2

rhNav1.7α+β1-β2-β3 = biological target: T8, rhNav1.7α+β1-β2-β3 (rhesus monkey α subunit with human β …); assay: binding FACS, CHO FlpIn cells
T8 construct: P2A cleaves it into α, β1, β2, β3; also called rhNav1.7-beta1-beta2-beta3
Protocol: as §1, §2

huNav1.7α+β1-β2-β3 [3] = biological target: T7, huNav1.7α+β1-β2-β3; assay: binding FACS, HEK FlpIn cells
Protocol: as §1, §2

huNav1.5α+β1-β2-β3 = biological target: T9, huNav1.5α+β1-β2-β3 (human, UniProt Q14524 1-2016; A5A6L6 19-218; O60939 30-215; Q2KI11 23-215); assay: binding FACS, HEK FlpIn cells
T9 construct: in the cell P2A cleaves it into α, β1, β2, β3; also called huNav1.5-beta1-beta2-beta3
Protocol: as §1, §2

[4] = biological target: T10, huNav157chimera14+β1-β2-β3 (human, UniProt Q07699 19-218; O60939 30-215; Q9NY72 23-215); assay: binding FACS with purified FLAG3-HIS6 tagged ISVDs
T10 construct: HEK FlpIn line; also called huNav157 chimera 14-beta1-beta2-beta3; Nav157ch14-β1-β2-β3
Protocol: as §1, §2

rhNav1.7α = rhNav1.7α (rhesus monkey, UniProt Q15858 1-1988 (human entry)); assay: cell-based or functional assay
[5] = biological target: T11, huNav1.7α (human Nav1.7 alpha subunit, expressed without β subunits) (human, UniProt Q15858 1-1988); assay: binding FACS, HEKa cells
T11 construct: also called HEK293 human Nav1.7α; HEKa Nav1.7α

[6] = biological target: T12, huNav1.7α + β1 (human Nav1.7α co-expressed with Navβ1) (human, UniProt Q15858 1-1988; Q07699 19-218); assay: binding FACS, HEKa/β1 cells
T12 construct: also called HEK293 human Nav1.7α + β1; HEKa/β1 Nav1.7α

[7] = biological target: T13, huNav157 chimera 14 + β1-β2-β3 (human); assay: binding FACS, HEK FlpIn cells
T13 construct: Chimera of huNav1.7α (extracellular loops and transmembrane helices) and huNav1.5α (intracellular loops); also called Nav157ch14-β1-β2-β3; huNav157 chimera 14-beta1-beta2-beta3

huNav157 chimera 14 = biological target: T14, huNav157 chimera 14 (human); assay: binding FACS, HEK FlpIn cells
T14 construct: Chimera without β subunits; also called Nav157ch14

[8] = biological target: T11, huNav1.7α (human Nav1.7 alpha subunit, …); assay: binding FACS, huNav1.7α without β; minus = weaker than reference
huNav1.7α = biological target: T15, huNav1.7α (human, UniProt Q15858 1-1988); assay: binding FACS, HEKa cells
T15 construct: HEK cells expressing the α subunit alone; also called HEKa; HEK huNav1.7α
How it was run: (§3)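 FLAG3-tagged ISVD, 30 min, 4° C, FACS buffer (PBS/10% FBS/NaN₃); 1×10^5 cells/well; detection murine anti-Flag; PI 1 μg/mL live gate; washes between steps.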

huNav1.7α+β1 [9] = biological target: T1, huNav1.7α+β1; assay: binding FACS, HEKa/β1 cells
How it was run: as §3

[10] = biological target: T10, huNav157chimera14+β1-β2-β3; assay: binding FACS, HEK FlpIn cells
Protocol: as §1, §2

huNav1.7α+β1-β2-β3 [11] = biological target: T7, huNav1.7α+β1-β2-β3; assay: binding FACS, HEK FlpIn cells; remark: listed apart in the source
[12] = biological target: T16, huNav1.7(N146S, V194I, F276V, R277Q, E281V, V331M, E504D, D507E, S508N, N533S)-β1-β2-β3 (human, UniProt Q15858 1-1988; Q07699 19-218; O60939 30-215; Q9NY72 23-215); assay: FACS on transiently transfected HEK293T cells
T16 construct: Transiently on HEK293T cells; The text prints V1941 for V194I; also called chimeric variant of huNav1.7α with all DI huNav1.7α-rhNav1.7α polymorphisms
Protocol: as §1
FACS binding studies (as described above) were performed on HEK293T cells transiently transfected with a chimeric variant of huNav1.7α in which all the huNav1.7α-rhNav1.7α polymorphisms of DI are present (N146S, V1941, F276V, R277Q, E281V, V331M, E504D, D507E, S508N, N533S). Replacing the huNav1.7α DI sequence for that of rhNav1.7α is sufficient to abolish the binding of F0103262CO2, F0103265B04, F0103262B06, and F0103265A11 to huNav1.7α, recapitulating the absence of binding on rhNav1.7α (see FIGS. 21A-21B).

T3 sequence (P35499 whole entry): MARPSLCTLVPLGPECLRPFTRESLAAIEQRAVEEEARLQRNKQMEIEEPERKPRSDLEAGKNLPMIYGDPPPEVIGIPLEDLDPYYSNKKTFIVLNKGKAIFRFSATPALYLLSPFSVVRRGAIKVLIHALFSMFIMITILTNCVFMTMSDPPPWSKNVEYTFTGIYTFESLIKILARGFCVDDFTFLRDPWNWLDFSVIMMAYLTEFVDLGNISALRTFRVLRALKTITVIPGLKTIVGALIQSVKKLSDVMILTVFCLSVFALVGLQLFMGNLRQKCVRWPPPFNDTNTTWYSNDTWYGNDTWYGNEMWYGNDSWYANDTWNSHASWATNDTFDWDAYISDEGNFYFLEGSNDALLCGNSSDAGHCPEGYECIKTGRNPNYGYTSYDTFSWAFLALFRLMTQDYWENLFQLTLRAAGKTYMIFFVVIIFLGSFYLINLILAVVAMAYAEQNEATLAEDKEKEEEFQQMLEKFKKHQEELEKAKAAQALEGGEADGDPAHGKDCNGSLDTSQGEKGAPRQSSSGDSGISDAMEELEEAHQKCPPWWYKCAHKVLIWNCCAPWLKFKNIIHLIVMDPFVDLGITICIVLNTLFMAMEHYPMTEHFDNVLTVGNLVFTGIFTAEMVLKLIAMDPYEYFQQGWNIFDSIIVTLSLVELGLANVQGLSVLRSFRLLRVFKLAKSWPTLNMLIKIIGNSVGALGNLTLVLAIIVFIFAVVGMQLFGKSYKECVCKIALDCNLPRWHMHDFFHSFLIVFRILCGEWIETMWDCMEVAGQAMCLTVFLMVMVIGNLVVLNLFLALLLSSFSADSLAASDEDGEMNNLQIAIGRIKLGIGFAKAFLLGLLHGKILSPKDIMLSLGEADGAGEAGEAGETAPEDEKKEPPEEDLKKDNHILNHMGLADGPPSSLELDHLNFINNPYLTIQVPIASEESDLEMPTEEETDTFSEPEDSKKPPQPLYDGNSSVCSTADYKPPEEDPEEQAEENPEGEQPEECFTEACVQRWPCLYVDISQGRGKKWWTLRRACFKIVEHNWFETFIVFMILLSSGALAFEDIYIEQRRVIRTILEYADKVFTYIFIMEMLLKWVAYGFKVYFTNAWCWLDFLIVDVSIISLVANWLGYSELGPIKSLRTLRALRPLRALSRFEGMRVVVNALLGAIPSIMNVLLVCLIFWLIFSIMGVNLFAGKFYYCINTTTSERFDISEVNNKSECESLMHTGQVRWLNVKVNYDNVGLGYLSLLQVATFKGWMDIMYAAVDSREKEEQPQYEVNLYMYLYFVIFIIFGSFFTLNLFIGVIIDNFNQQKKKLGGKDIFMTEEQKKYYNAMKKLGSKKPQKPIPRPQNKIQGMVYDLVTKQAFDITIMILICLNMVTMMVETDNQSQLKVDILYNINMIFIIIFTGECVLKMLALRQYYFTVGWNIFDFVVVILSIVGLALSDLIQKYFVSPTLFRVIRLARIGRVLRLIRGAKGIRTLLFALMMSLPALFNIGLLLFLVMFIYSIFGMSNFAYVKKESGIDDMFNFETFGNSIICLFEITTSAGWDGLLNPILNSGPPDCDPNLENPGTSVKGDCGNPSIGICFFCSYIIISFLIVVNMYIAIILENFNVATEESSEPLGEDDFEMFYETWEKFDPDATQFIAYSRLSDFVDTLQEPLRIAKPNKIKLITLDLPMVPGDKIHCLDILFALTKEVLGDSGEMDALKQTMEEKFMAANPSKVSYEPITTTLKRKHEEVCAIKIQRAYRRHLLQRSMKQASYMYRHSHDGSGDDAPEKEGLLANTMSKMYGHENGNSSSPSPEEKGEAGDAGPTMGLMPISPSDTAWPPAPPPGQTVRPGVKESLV
T2 sequence (Q9NY46 whole entry): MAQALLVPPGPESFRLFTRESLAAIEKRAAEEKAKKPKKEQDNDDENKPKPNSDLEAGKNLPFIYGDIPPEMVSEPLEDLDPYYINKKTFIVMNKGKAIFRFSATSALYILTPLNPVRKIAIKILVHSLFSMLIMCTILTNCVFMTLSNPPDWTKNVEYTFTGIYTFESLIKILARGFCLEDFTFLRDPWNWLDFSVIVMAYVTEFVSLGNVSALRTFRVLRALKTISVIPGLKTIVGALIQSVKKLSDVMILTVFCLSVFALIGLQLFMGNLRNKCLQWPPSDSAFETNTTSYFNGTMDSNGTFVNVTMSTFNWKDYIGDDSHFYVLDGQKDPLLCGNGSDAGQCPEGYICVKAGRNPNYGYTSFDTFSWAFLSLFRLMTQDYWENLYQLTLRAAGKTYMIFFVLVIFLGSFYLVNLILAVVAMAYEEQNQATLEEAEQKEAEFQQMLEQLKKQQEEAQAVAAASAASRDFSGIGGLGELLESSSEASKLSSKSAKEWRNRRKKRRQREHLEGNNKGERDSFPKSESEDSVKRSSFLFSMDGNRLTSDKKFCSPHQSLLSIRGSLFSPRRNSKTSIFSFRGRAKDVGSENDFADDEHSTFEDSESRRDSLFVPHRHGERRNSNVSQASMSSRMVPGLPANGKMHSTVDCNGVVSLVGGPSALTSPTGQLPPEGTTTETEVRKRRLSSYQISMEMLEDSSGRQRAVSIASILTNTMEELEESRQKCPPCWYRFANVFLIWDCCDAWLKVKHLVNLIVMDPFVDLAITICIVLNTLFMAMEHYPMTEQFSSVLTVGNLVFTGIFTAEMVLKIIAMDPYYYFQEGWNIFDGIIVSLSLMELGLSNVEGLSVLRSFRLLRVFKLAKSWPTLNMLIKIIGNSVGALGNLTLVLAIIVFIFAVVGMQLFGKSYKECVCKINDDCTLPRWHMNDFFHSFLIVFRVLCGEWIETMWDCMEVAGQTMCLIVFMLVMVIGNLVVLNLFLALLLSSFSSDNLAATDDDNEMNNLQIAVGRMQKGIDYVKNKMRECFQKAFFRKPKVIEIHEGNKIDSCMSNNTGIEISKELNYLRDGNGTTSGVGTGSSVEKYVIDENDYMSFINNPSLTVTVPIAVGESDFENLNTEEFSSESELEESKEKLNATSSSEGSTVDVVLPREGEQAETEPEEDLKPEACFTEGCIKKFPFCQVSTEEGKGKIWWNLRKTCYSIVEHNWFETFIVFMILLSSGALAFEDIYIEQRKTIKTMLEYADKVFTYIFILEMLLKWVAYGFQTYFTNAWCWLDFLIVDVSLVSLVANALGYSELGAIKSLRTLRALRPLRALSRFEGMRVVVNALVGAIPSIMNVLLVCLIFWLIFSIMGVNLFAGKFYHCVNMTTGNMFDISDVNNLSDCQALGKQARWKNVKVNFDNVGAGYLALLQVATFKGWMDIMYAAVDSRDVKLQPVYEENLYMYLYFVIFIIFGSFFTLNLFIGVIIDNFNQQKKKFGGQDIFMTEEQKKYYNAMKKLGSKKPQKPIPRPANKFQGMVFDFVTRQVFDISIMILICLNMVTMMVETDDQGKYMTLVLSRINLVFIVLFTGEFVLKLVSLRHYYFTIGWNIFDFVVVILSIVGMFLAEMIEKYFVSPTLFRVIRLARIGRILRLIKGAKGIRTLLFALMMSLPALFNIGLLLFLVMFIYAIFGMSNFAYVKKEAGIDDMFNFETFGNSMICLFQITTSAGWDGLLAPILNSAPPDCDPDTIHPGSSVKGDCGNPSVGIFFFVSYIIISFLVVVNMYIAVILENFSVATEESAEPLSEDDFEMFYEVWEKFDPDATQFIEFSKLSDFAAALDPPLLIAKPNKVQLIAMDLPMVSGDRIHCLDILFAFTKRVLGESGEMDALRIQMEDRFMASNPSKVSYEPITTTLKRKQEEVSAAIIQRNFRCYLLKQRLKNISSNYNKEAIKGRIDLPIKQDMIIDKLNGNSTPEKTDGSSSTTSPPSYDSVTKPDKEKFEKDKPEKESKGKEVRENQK

EC50 (huNav1.7α+β1 [1]): 59 nM
binding result (huNav1.3α): no binding
binding result (huNav1.4α): no binding
binding result (huNav1.6α): no binding
binding result (huNav1.8α): no binding
binding result (huNav1.1α): no binding
binding result (huNav1.2α): no binding
EC50 (huNav1.7α+β1-β2-β3 [2]): 110 nM
binding result (rhNav1.7α+β1-β2-β3): no binding
EC50 (huNav1.7α+β1-β2-β3 [3]): 42 nM
binding result [4]: binds
B1: F0103362B08 (parental)-FLAG-HIS6 (VHH)
VHH: EVQLVESGGGLVQAGGSLRLSCAASVRPFSTSAMGWFRQAPEKEREAVAGILWNGIVTYYADSVKGRFTISRDNAKNEVYLQMNKLKPEDTAVYYCALDRDYGGRSFSAYEYEYWGQGTLVTVSS
binding result (huNav1.5α+β1-β2-β3): no binding

2-pulse IC50 [M], P1 (rhNav1.7α): 7e-06 M
2-pulse IC50 [M], P2 (rhNav1.7α): 3e-06 M
binding result (huNav1.8α): no binding
binding result [4]: binds
B2: F0103387G04 (parental)-FLAG-HIS6 (VHH)
VHH: EVQLVESGGGLAQPGGSLRLSCAASGPVFNINKMAWYRRAPGKQRELVASVTPTGSISYTDSVKGRFTISRDGSKRWSLQMNSLTPEDTAVYYCNALLQPDSYSNTRTYWGQGTLVTVSS
notes: also called F01033387G04
binding result (huNav1.5α+β1-β2-β3): no binding

Bmax [5]: 75%
EC50 [5]: 8 nM
EC50 [6]: 4 nM
EC50 [7]: 4.7 nM
Bmax (huNav157 chimera 14): 80%
EC50 (huNav157 chimera 14): 12 nM
EC50 fold change compared to reference [8]: -2 fold
B3: F010301647 (VHH)
VHH: EVQLVESGGGVVQPGGSLRLSCDASGRILRIGYMRWHRQGAGKQRELVARITDDSATDYADSVKGRFTISRDNAKNTVYLQMNSLRPEDTALYYCEALVTASVRGGSIHSGTYWGQGTLVTVSS
notes: also called F0103387G05(L11V, A14P, F47L, N82bS, N83R, V89L, R105Q); F47L

binding result (huNav1.7α): no binding
EC50 (huNav1.7α+β1 [1]): 8.4 nM
Bmax relative to '535 (huNav1.7α+β1 [9]): 34%
EC50 (huNav1.7α+β1 [9]): 11 nM
binding result (huNav1.3α): no binding
binding result (huNav1.4α): no binding
binding result (huNav1.6α): no binding
binding result (huNav1.8α): no binding
binding result (huNav1.1α): no binding
binding result (huNav1.2α): no binding
EC50 (huNav1.7α+β1-β2-β3 [2]): 66 nM
binding result (rhNav1.7α+β1-β2-β3): no binding
EC50 (huNav1.7α+β1-β2-β3 [3]): 37 nM
EC50 [10]: 34 nM
EC50 (huNav1.7α+β1-β2-β3 [11]): 77 nM
binding result [12]: no binding (tested: 1 µM)
B4: F0103265A11 (parental)-FLAG-HIS6 (VHH)
VHH: EVQLVESGGGLVQPGGSLRLSCAASGMLFNANTQGWYRQAPGKQRELVAFIFSGGYTNYVDSVKGRFTISRDNAKRTMYLQMNSLKPEDSAIYYCSLSRYLGQGTLVTVSS
notes: also called F01033265A11
binding result (huNav1.5α+β1-β2-β3): no binding

EC50 (huNav1.7α+β1 [1]): 20 nM
binding result (huNav1.3α): no binding
binding result (huNav1.4α): no binding
binding result (huNav1.6α): no binding
binding result (huNav1.8α): no binding
binding result (huNav1.1α): no binding
binding result (huNav1.2α): no binding
EC50 (huNav1.7α+β1-β2-β3 [2]): 19 nM
binding result (rhNav1.7α+β1-β2-β3): no binding
EC50 (huNav1.7α+β1-β2-β3 [3]): 25 nM
EC50 [10]: 16 nM
binding result [12]: no binding (tested: 1 µM)
B5: F0103262B06 (parental)-FLAG-HIS6 (VHH)
VHH: EVQLVESGGGLVQPGGSLRLSCAGSTRTFSTYAMGWFRQAPGREREFVAHINFSGSSTRYADSVKGRFTISRDNAKNMGYLQMNSLKPEDTAVYYCAARWVAGPPRYDYEYWGQGTLVTVSS
binding result (huNav1.5α+β1-β2-β3): no binding

— patent US20240002497A1 (Merck Sharp & Dohme, published 2024)
